Assay results: US11433139B2, “Peptide vaccines against interleukin-31” (Zoetis Services LLC, priority 2018, dated 2022)

Columns and labels:
canine IL-31 [1] = assay: Affinity of anti-IL-31 antibodies by surface plasmon resonance (Biacore), canine IL-31 surface; assay type: binding; details: IL-31 conjugated to the surface (FIG. 2)
Outline: (§1)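 IL-31 amine-coupled (NHS/EDC) at 5 μg/mL directly onto the SPR chip, quenched with ethanolamine; candidate mAbs flowed over as analyte. KD from 1:1 model fits; values below 1×10^−11 M are under the instrument's lower quantitation limit.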

feline IL-31 [2] = assay: Competition binding assessment using Biacore, feline IL-31 surface; details: sequential addition of 15H05 and 11E12, Biacore
Experimental: To further characterize the IL-31 epitopes bound by mAbs 15H05 and 11 E12, blocking experiments were performed using biacore where the surface containing the IL-31 protein was generated followed by sequential addition of antibodies. FIGS. 7A and 7B show the relative binding of each antibody to IL-31 following capture of 11E12 or 15H05. The columns labeled HBS-EP (assay buffer) indicate the maximum signal obtained from each antibody binding to the IL-31 surface alone without competition. […] The sensograms related to FIG. 7A show the disassociation kinetics of both antibodies are very slow on this newly formed biacore surface therefore no additional occupation of binding sites can occur with addition of the same antibody (data not shown).
Binding of additional antibody in the presence of the same antibody is a result of the increased off rate due to the poorer quality of the surface used. Increased off rates can be seen and compared to the KD values from newly formed feline IL-31 surfaces in FIG. 2.
Target sequence in this assay (as listed by the source): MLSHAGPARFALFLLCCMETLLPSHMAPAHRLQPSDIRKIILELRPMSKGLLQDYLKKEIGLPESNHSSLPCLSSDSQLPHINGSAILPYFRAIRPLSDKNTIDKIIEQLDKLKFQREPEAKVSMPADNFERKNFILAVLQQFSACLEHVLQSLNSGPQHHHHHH

canine IL-31 [3] = assay: Biacore binding, single test concentration of antibody, canine IL-31 surface
Experimental: (§2) For the indirect ELISA, binding (ELISA OD) to wildtype feline IL-31 and a feline IL-31 15H05 mutant which had mutations in the monoclonal antibody 15H05 epitope region was assessed. To confirm binding, biacore analysis was performed using canine, feline, equine, human, the feline 15H05 mutant, and feline 11E12 mutant IL-31 proteins as surfaces and a single test concentration of antibody. The feline IL-31 11E12 mutant had mutations in the monoclonal antibody 11E12 epitope region.
For the indirect ELISA method, antibody binding to wildtype and feline IL-31 15H05 mutant proteins was assessed. […] In comparison, the 11E12 antibody bound to the wild-type feline IL-31 and its binding was not impacted by the mutations in the 15H05 epitope region as evidenced by the data in FIG. 4. To confirm binding, biacore analysis was performed using canine, feline, equine, human, feline 15H05 mutant, and feline 11E12 mutant IL-31 proteins as surfaces and a single test concentration of antibody. Similar to ELISA observations, all antibodies tested bound to wildtype feline IL-31. In agreement with the data described above in this section, mouse antibodies 11 E12 and 15H05 both bound to canine and feline IL-31 surfaces. […] From this group of nine fully canine antibodies, only ZIL1 and ZIL9 cross-reacted with equine IL-31. Of note, antibody 15H05 was the only one of all assayed herein that bound to canine, feline, and equine IL-31 indicating some level of epitope conservation across the three species. In contrast, none of the antibodies described herein bound to human IL-31. Additional biacore surfaces were used to verify ELISA observations showing differential binding of antibodies to wildtype feline IL-31 and two proteins with mutations in the 15H05 (15H05 mutant) or 11 E12 (11E12 mutant) epitopes. […] Differing results can be attributed to differences in the two assay methodologies.

[4] = tested on: feline IL-31 11E12 mutant; assay: Indirect ELISA, binding to feline IL-31 11E12 mutant; details: compared with wildtype
feline IL-31 11E12 mutant, sequence (as listed by the source, change not shown): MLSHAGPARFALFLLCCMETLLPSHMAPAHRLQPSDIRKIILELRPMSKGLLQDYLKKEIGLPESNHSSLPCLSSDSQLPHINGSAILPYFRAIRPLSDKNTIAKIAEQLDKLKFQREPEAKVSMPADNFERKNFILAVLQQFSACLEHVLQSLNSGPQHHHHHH
Text: To determine the impact of mAbs 11E12 and 15H05 ability to bind these mutant forms of feline IL-31, an indirect ELISA was run using the mutants directly coated on to an immunoassay plate. […] The minor attenuation of mAb 15H05s binding to the 11E12 mutant is likely due to translational effects of the mutations from movement of the two front helices effecting the 15H05 binding site. The mutations designed to affect mAb 15H05s binding (mutant 15H05) show a complete loss of mAb 1505s ability to bind this IL-31 mutant by ELISA. Unlike the 11E12 mutant, the changes in the random coil recognized by mAb 15H05 (mutant 15H05) had no impact on mAb 11E12 binding further supporting the distinction between the two epitopes (FIG. 6C).

[5] = tested on: feline 11E12 mutant IL-31; assay: Biacore binding, single test concentration of antibody, feline 11E12 mutant IL-31 surface
feline 11E12 mutant IL-31, sequence (as listed by the source, stated change not applied): as the sequence (as listed by the source, change not shown) above
Outline: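 Surface plasmon resonance with IL-31 proteins (wildtype feline, equine, or feline proteins mutated in the 15H05 or 11E12 epitope regions) immobilized as surfaces. Each antibody injected at a single test concentration to score binding.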

feline IL-31 [6] = assay: Affinity of anti-IL-31 antibodies by surface plasmon resonance (Biacore), feline IL-31 surface; assay type: binding; details: IL-31 conjugated to the surface (FIG. 2)
Outline: as §1
Target sequence in this assay (as listed by the source): as the sequence (as listed by the source, change not shown) above, with A104D, A107I counted along it

wildtype feline IL-31 = assay: Biacore binding, single test concentration of antibody, feline IL-31 surface
wildtype feline IL-31, sequence (as listed by the source): as the sequence (as listed by the source, change not shown) above, with A104D, A107I counted along it
Experimental: as §2
For the indirect ELISA method, antibody binding to wildtype and feline IL-31 15H05 mutant proteins was assessed. […] In comparison, the 11E12 antibody bound to the wild-type feline IL-31 and its binding was not impacted by the mutations in the 15H05 epitope region as evidenced by the data in FIG. 4. To confirm binding, biacore analysis was performed using canine, feline, equine, human, feline 15H05 mutant, and feline 11E12 mutant IL-31 proteins as surfaces and a single test concentration of antibody. Similar to ELISA observations, all antibodies tested bound to wildtype feline IL-31. In agreement with the data described above in this section, mouse antibodies 11 E12 and 15H05 both bound to canine and feline IL-31 surfaces. […] From this group of nine fully canine antibodies, only ZIL1 and ZIL9 cross-reacted with equine IL-31. […]

feline IL-31 [7] = assay: Inhibition of feline IL-31 induced pSTAT3 signaling in canine DH-82 cells; assay type: cell-based; details: feline IL-31, pSTAT3, canine DH82 cells (FIG. 3)
Outline: (§3)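 DH-82 cells primed with canine IFN-γ 10 ng/mL for 24 h, FCWF4 with feline IFN-γ 125 ng/mL for 96 h, then serum-starved 2 h. mAb pre-incubated 1 h with 1 μg/mL canine or 0.2 μg/mL feline IL-31, cells stimulated 5 min; pSTAT3 by AlphaLISA SureFire, IC50 as half-maximal signalling reduction.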
Target sequence in this assay (as listed by the source): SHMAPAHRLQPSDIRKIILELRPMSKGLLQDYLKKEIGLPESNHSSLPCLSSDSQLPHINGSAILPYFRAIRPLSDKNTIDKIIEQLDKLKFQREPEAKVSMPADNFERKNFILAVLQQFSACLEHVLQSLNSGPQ

feline IL-31 [8] = assay: Inhibition of feline IL-31 induced pSTAT3 signaling in feline FCWF4 macrophage-like cells; assay type: cell-based; details: 0.2 μg/mL feline IL-31, pSTAT3, FCWF4 cells (FIG. 3)
Outline: as §3

canine IL-31, sequence (as listed by the source): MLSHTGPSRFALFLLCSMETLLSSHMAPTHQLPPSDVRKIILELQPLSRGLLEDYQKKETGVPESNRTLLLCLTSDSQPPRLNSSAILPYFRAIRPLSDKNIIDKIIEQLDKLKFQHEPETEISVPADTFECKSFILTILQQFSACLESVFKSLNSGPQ

B1: 15H05: mouse anti IL-31 monoclonal antibody, VH SEQ ID NO: 67, VL SEQ ID NO: 69 (antibody, listed as Mus musculus, V domains shown)
VH: QVQLQQSAAELARPGASVKMSCKTSGYTFTSYTIHWIKQRPGQGLEWIGNINPTSGYTENNQRFKDKTTLTVDRSSNTAYLQLHSLTSEDSAVYFCARWGFKYDGEWSFDVWGAGTTVTVSS
VL: DIQMNQSPSSLSASLGDTITVTCRASQGISIWLSWYQQKPGNIPKVLINKASNLHIGVPPRFSGSGSGTHFTLTITSLQPEDIATYYCLQSQTYPLTFGGGTKLEIN
Canine IL-31 [1]; listed as Mu-15H05
  affinity (KD) to canine IL-31: sub-nanomolar
Canine IL-31 [1]; listed as mAb 15H05
  affinity (KD) to canine IL-31: high
Feline IL-31 [2]
  competition binding on feline IL-31: no overlap in the epitope recognized
Canine IL-31 [3]
  binding to canine IL-31 (Biacore): bound
[4]
  binding to feline IL-31 11E12 mutant (ELISA): partially attenuated
[5]
  binding to feline 11E12 mutant IL-31 (Biacore): retained binding
Feline IL-31 [6]; listed as Mu-15H05
  affinity (KD) to feline IL-31: sub-nanomolar
Feline IL-31 [6]; listed as mAb 15H05
  affinity (KD) to feline IL-31: high
Wildtype feline IL-31
  binding to wildtype feline IL-31 (Biacore): bound
Feline IL-31 [7]
  potency (IC50) against feline IL-31 in canine DH82 cells: comparable
Feline IL-31 [8]
  potency (IC50) against feline IL-31 in feline FCWF4 cells: slight increase in IC50
